# Target: near wild type β1AR construct (β6) (UniProt P07700)
# Test: cell-based or functional assay
# Sequence of near wild type β1AR construct (β6) (P07700 33-424): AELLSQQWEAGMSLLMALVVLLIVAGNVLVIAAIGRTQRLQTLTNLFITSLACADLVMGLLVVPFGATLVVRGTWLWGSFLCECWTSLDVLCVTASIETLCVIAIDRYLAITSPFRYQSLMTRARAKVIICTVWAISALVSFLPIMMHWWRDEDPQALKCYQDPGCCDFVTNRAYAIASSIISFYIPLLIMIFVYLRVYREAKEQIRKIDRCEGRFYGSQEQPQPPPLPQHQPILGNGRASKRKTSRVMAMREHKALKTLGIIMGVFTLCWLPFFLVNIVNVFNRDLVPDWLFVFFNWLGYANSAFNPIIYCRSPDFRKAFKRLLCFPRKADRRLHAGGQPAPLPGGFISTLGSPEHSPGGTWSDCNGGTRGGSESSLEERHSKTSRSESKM
Substance,fold increase of isoprenaline affinity of the near wild-type β1AR,isoprenaline IC50 of β6 (alone […] nM)
Nb80 (VHH),3.5 fold,51 nM

# Target: wild type A2AR in HEK293 cell membranes (UniProt P29274)
# Test: cell-based or functional assay
# Sequence of wild type A2AR in HEK293 cell membranes (P29274 whole entry): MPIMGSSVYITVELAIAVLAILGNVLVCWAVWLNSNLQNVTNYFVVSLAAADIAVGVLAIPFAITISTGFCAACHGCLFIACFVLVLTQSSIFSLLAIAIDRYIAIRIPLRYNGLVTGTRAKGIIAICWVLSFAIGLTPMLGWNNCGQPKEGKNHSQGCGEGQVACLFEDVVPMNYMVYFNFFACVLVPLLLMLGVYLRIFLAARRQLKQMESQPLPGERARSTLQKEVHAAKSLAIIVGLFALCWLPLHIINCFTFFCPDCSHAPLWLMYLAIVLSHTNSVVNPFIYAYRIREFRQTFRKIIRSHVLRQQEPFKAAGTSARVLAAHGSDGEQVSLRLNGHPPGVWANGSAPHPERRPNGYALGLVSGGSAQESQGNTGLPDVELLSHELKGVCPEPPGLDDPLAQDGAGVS
row,Substance,"NECA Ki of A2AR in HEK293 membranes, 100 mM NaCl (alone 4.6 µM)"
1,Gs-Nb35 (non-lipidated heterotrimeric Gs with nanobody Nb35) (from UniProt P62873 2-340; P59768 2-71),340 nM

# Target: β1AR-84 (minimally thermostabilised turkey β1 adrenergic receptor construct) (turkey) (UniProt P07700)
# Sequence (P07700 other isoform, or with tags, fused parts or gaps): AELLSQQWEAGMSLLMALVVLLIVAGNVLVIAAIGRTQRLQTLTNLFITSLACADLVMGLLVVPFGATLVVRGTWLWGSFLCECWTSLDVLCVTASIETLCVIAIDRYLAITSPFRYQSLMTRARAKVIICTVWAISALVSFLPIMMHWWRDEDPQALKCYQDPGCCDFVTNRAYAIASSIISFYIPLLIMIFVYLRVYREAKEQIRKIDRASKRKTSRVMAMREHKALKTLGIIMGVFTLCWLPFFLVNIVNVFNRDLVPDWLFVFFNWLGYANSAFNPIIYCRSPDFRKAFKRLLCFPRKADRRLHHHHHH
# Test: cell-based or functional assay
Substance,fold shift of isoprenaline Ki of β1AR-84,isoprenaline Ki of DDM-solubilised β1AR-84 (alone […] µM),"isoprenaline Ki of β1AR-84, 20 °C (alone […] nM)","isoprenaline Ki of β1AR-84, 4 °C (alone […] nM)",isoprenaline Ki of β1AR-84 with 0.25 mM GTPγS (alone 3.0 µM)
Gs-Nb35 (non-lipidated heterotrimeric Gs with nanobody Nb35) (from UniProt P62873 2-340; P59768 2-71),163 fold,0.023 µM,16 nM,–,–
Nb80 (VHH),93 fold,0.083 µM,28 nM,–,–
non-lipidated heterotrimeric Gs (Gαsβ1γ2) (from UniProt P62873 2-340; P59768 2-71),9.6 fold,–,271 nM,419 nM,2700 nM

# Target: β1AR-WT (wild type-like turkey β1 adrenergic receptor construct) (turkey) (UniProt P07700)
# Sequence (P07700 other isoform, or with tags, fused parts or gaps limits assumed): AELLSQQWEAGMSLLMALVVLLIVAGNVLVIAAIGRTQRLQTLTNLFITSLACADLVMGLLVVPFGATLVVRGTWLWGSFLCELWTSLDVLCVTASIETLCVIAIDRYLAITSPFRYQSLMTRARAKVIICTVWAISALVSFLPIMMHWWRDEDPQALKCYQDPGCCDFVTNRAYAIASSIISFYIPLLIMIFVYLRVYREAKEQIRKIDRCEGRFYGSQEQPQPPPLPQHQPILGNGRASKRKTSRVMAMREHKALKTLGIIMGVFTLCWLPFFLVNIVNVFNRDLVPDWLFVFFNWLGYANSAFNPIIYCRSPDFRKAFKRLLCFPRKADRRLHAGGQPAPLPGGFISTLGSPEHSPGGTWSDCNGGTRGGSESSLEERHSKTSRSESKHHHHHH
# Test: cell-based or functional assay
Substance,apparent Tm of β1AR-WT complex in DDM (receptor alone 25.9 °C),apparent Tm of β1AR-WT complex in decylmaltoside (receptor alone 20.4 °C),fold shift of isoprenaline Ki of β1AR-WT,isoprenaline Ki of membrane-embedded β1AR-WT (alone 40 nM),norepinephrine Ki of β1AR-WT (alone 158 nM),apparent Tm of β1AR-WT complex in nonylglucoside (uncoupled receptor did not survive),apparent Tm of β1AR-WT complex in octylglucoside (uncoupled receptor did not survive)
Gs-Nb35 (non-lipidated heterotrimeric Gs with nanobody Nb35) (from UniProt P62873 2-340; P59768 2-71),35.8 °C,31.1 °C,5.9 fold,6.8 nM,0.36 nM,19 °C,13.6 °C
Nb80 (VHH),32 °C,28.6 °C,6.9 fold,5.8 nM,0.7 nM,16.7 °C,14.3 °C
non-lipidated heterotrimeric Gs (Gαsβ1γ2) (from UniProt P62873 2-340; P59768 2-71),–,–,2.4 fold,17 nM,–,–,–

# Target: β84 (minimally thermostabilised β1AR construct of Example 2) (UniProt P07700)
# Test: cell-based or functional assay
Substance,"isoprenaline IC50 of β84, 20 °C (alone […] µM)",isoprenaline IC50 of β84 (alone […] µM),"isoprenaline IC50 of β84, 4 °C","isoprenaline IC50 of β84, 20 °C","isoprenaline IC50 of β84, 4 °C (alone […] µM)"
GTPase domain with βγ-dimer and Nb35 (from UniProt P62873 2-340; P59768 2-71),0.206 µM,–,–,–,–
Gαs GTPase domain A48D (from UniProt P63092 45-394),–,–,185 nM,1800 nM,–
Gαs GTPase domain C237E (from UniProt P63092 45-394),–,–,93 nM,1900 nM,–
Gαs GTPase domain D240G (from UniProt P63092 45-394),–,–,510 nM,4400 nM,–
Gαs GTPase domain E50N (from UniProt P63092 45-394),–,–,55 nM,1100 nM,–
Gαs GTPase domain F208N (from UniProt P63092 45-394),–,–,250 nM,1300 nM,–
Gαs GTPase domain G49D (from UniProt P63092 45-394),–,–,37 nM,428 nM,–
Gαs GTPase domain G49D/E50N (from UniProt P63092 45-394),–,–,44 nM,364 nM,–
Gαs GTPase domain G226A (from UniProt P63092 45-394),–,–,127 nM,1200 nM,–
Gαs GTPase domain H41I (from UniProt P63092 45-394),–,–,58 nM,589 nM,–
Gαs GTPase domain L270N/I348N (from UniProt P63092 45-394),–,–,4300 nM,–,–
Gαs GTPase domain L272E (from UniProt P63092 45-394),–,–,42 nM,110 nM,–
Gαs GTPase domain N279D/Q235K (from UniProt P63092 45-394),–,–,102 nM,2000 nM,–
Gαs GTPase domain N279E/I235K (from UniProt P63092 45-394),–,–,1200 nM,2800 nM,–
Gαs GTPase domain R199K (from UniProt P63092 45-394),–,–,108 nM,1900 nM,–
Gαs GTPase domain R201A (from UniProt P63092 45-394),–,–,46 nM,2200 nM,–
Gαs GTPase domain R356D (from UniProt P63092 45-394),–,–,161 nM,3300 nM,–
Gαs GTPase domain S54N (from UniProt P63092 45-394),–,–,462 nM,–,–
Gαs GTPase domain S286C/I382C (from UniProt P63092 45-394),–,–,4200 nM,7000 nM,–
Gαs GTPase domain V36D/N218K (from UniProt P63092 45-394),–,–,115 nM,–,–
Gαs GTPase domain V36D/N218K/T40D (from UniProt P63092 45-394),–,–,427 nM,3200 nM,–
Gαs GTPase domain Y37D (from UniProt P63092 45-394),–,–,81 nM,2000 nM,–
Gαs GTPase domain Y37R/R42D (from UniProt P63092 45-394),–,–,2300 nM,–,–
Gαs GTPase domain Δ254-263,–,–,31 nM,30 nM,–
Gαs GTPase domain Δ254-263/Y253P,–,–,23 nM,142 nM,–
"isolated GTPase domain of Gαs (Example 2, FIG. 14)",3.4 µM,–,–,–,0.253 µM

# The remaining lines, values ahead:
"isoprenaline IC50 of β84, 20 °C (alone […] µM)",isoprenaline IC50 of β84 (alone […] µM),"isoprenaline IC50 of β84, 4 °C","isoprenaline IC50 of β84, 20 °C","isoprenaline IC50 of β84, 4 °C (alone […] µM)",Substance
–,0.068 µM,–,–,–,Gs-Nb35 (non-lipidated heterotrimeric Gs with nanobody Nb35) (from UniProt P62873 2-340; P59768 2-71)
–,–,15 nM,53 nM,–,Gαs GTPase domain A249D (from UniProt P63092 45-394)
–,–,104 nM,582 nM,–,Gαs GTPase domain A249E (from UniProt P63092 45-394)
–,–,146 nM,1600 nM,–,Gαs GTPase domain A249S (from UniProt P63092 45-394)
–,–,2400 nM,–,–,Gαs GTPase domain D295N (from UniProt P63092 45-394)
–,–,285 nM,3900 nM,–,Gαs GTPase domain H41L (from UniProt P63092 45-394)
–,–,307 nM,1800 nM,–,Gαs GTPase domain H41M (from UniProt P63092 45-394)
–,–,77 nM,737 nM,–,Gαs GTPase domain H41V (from UniProt P63092 45-394)
–,–,10 nM,464 nM,–,Gαs GTPase domain L272D (from UniProt P63092 45-394)
–,–,109 nM,1800 nM,–,Gαs GTPase domain R199D (from UniProt P63092 45-394)
–,–,229 nM,2800 nM,–,Gαs GTPase domain R356S (from UniProt P63092 45-394)
–,–,21 nM,142 nM,–,Gαs GTPase domain S252D (from UniProt P63092 45-394)
–,–,57 nM,575 nM,–,Gαs GTPase domain S252E (from UniProt P63092 45-394)
–,–,136 nM,2000 nM,–,Gαs GTPase domain S275D (from UniProt P63092 45-394)
–,–,551 nM,2400 nM,–,Gαs GTPase domain V36D/N218K/T40A (from UniProt P63092 45-394)
–,–,584 nM,4000 nM,–,Gαs GTPase domain W234A/F238A (from UniProt P63092 45-394)
–,–,136 nM,–,–,Gαs GTPase domain parental construct (Example 2) (from UniProt P63092 45-394)
–,–,34 nM,799 nM,–,Gαs GTPase domain Δ227-230/GG linker
–,–,1300 nM,–,–,Gαs GTPase domain Δ255-262/G linker
–,0.016 µM,–,–,–,Nb80 (VHH)
–,1.4 µM,–,–,–,non-lipidated heterotrimeric Gs (Gαsβ1γ2) (from UniProt P62873 2-340; P59768 2-71)

# Reference: patent publication US20190032033A1
